Substitutions are numbered along the chain they refer to. Numbers in names are those of the source.

The source of these data is US20180230213A1 (AVEO PHARMACEUTICALS, published 2018).

The chains are these.
T1: monomeric recombinant human Notch3 extracellular domain (containing EGF like domains 1-11) fusion protein (human, UniProt Q9UM47 40-467)
T1 construct: domain: EGF like domains 1-11; also called monomeric rhNotch3
T1 sequence (looked up): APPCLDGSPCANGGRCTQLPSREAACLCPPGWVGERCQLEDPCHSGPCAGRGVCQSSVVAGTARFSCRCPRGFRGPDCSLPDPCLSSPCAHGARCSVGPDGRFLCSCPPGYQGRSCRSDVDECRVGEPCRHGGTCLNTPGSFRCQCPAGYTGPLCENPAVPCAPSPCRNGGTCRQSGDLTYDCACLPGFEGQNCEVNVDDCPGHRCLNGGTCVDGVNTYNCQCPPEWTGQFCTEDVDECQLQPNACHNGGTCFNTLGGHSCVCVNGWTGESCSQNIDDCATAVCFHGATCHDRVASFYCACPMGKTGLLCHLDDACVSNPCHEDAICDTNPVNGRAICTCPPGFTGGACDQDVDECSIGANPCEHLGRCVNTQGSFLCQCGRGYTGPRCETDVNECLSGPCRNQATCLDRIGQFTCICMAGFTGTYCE

B1: Hu4F11-76 (antibody, human IgG1, kappa, V domains shown)
VH: EVQLLESGGGLVQPGGSLRLSCAASGFAFSHYDMSWVRQAPGKGLEWVSYISRGGGSTYYPDSVKGRFTISRDNSKNTLYLQMNSLRAEDTAVYYCGRHATTAYWYFDVWGQGTMVTVSS
VL: DVVMTQTPLSLSVTPGQPASISCRSSQSLVHTYGNTYLHWYLQKPGQSPQLLIYKVSNRFSGVPDRFSGSGSGTDFTLKISRVEAEDVGVYFCSQSTHVPWTFGQGTKVEIKR
notes: Humanized, human IgG1 kappa; Hv3-23 S31H T62S heavy + Kv2D-29 N28Y kappa
B2: Hu4F11-79 (antibody, human IgG1, kappa, V domains shown)
VH: B1 VH with A28T, H31S
VL: B1 VL with Y33Q
notes: Humanized, human IgG1 kappa; Hv3-23 A28T T62S heavy + Kv2D-29 N28Q kappa
B3: Hu4F11-78 (antibody, human IgG1, kappa, V domains shown)
VH: B1 VH with A28T
VL: B1 VL with Y33Q
notes: Humanized, human IgG1 kappa; Hv3-23 A28T S31H T62S heavy + Kv2D-29 N28Q kappa
B4: Hu4F11-77 (antibody, human IgG1, kappa, V domains shown)
VH: B1 VH with A28T, H31N
VL: B1 VL with Y33Q
notes: Humanized, human IgG1 kappa; Hv3-23 A28T S31N T62S heavy + Kv2D-29 N28Q kappa
B5: Hu4F11-80 (antibody, human IgG1, kappa, V domains shown)
VH: B1 VH
VL: B1 VL with Y33Q
notes: Humanized, human IgG1 kappa; Hv3-23 S31H T62S heavy + Kv2D-29 N28Q kappa
B6: recombinant human Notch3 extracellular domain (containing EGF like domains 1-11) Fc fusion protein (Fc fusion, UniProt Q9UM47 40-467, looked up, not shown: a dimerising Fc or GST)
chain: T1 sequence (looked up)
notes: domain: EGF like domains 1-11; also called rhNotch3-Fc; rhNotch3

For the first experiment, the target named is T1, monomeric recombinant human Notch3 …. Put plainly: SPR BIAcore T100, monomeric rhNotch3 analyte, 37 C, average of Table 16 and additional measurements. As to the method:
(§1) Goat anti-human IgGs (Fc fragment specific, Jackson ImmunoResearch, West Grove, Pa.) were immobilized on carboxymethylated dextran CM4 sensor chips by amine coupling, according to a standard protocol. Analyses were performed at 25 and 37° C. using PBS containing 0.05% surfactant P20 as running buffer. The antibodies were captured in individual flow cells at a flow rate of 10 μL/minute. Injection time was varied for each antibody to yield an Rmax between 30 and 60 RU. Buffer or Notch3 protein diluted in running buffer was injected sequentially over a reference surface (no antibody captured) and the active surface (antibody to be tested) for 240 seconds at 60 μL/minute. The dissociation phase was monitored for up to 900 seconds. The surface was then regenerated with two 60-second injections of 10 mM Glycine-HCl, pH 2.25, at a flow rate of 30 μL/minute. The Notch3 concentration range tested was 50 nM to 6.25 nM.
On to B1, for which the Kd stood at 8.2 nM, the koff turned out to be 0.0064 s⁻¹ and the kon is 980000 M⁻¹ s⁻¹.

For the molecule B2, the Kd amounted to 16 nM, the koff came out at 0.0091 s⁻¹ and the kon came to 900000 M⁻¹ s⁻¹.

Regarding B3, the Kd was determined as 9 nM, the koff was 0.006 s⁻¹ and the on-rate (kon) was determined as 820000 M⁻¹ s⁻¹.

In the case of B4, the Kd came to 8.6 nM, the dissociation rate constant (koff) amounted to 0.0074 s⁻¹ and the on-rate (kon) was 1.2e+06 M⁻¹ s⁻¹.

For the molecule B5, the Kd is 14 nM, the dissociation rate constant (koff) was found to be 0.0056 s⁻¹ and the on-rate (kon) came out at 590000 M⁻¹ s⁻¹.

Another experiment has as its target T2, rhJag1-Fc (human, UniProt P78504 32-1046, limits assumed).
T2 construct: also called R&D Cat. No. 1277-JG-050
Put plainly: BLI (Octet QK): rhNotch3 on the sensor, IgG in place of a Notch3 antibody, then the ligand in solution. As for the experimental part:
(§2) The 4F11 antibody was tested for its ability to inhibit the binding of rhNotch3 binding to human Jag1, Jag2, DLL1 and DLL4. Binding measurements were made by bio-layer interferometry (BLI), using a FortéBio Octet® QK instrument (ForteBio, Menlo Park, Calif.). The ligands tested were rhJag1-Fc (R&D Cat. No. 1277-JG-050), rhJag2-Fc (R&D Cat. No. 1726-JG-050), rhDLL1-Fc (R&D Cat. No. 5026-DL-050), and His tagged rhDLL4 (R&D Cat. No. 1506-D4-050).
(§3) To determine the degree of inhibition of Notch3-ligand binding by antibody 4F11, the Octet sensors were loaded with recombinant human Notch3, and the antibody was allowed to bind, as described in Example 4. In positive control samples, a commercially available Notch3 polyclonal antibody capable of blocking ligand binding to recombinant human Notch3 (Notch3 Specific Control) was used instead of the 4F11 antibody. Then sensors were immersed in 500 ug/ml human IgG, to block non-specific binding. Ligands were prepared at a concentration of 400 nM in PBS containing 3% BSA, and were allowed to bind. The on-rate and off-rate for ligand binding were detected using the Octet QK instrument and software. The 4F11 antibody blocked binding of all four ligands to rhNotch3-Fc (FIG. 5A-5D).
Take B6: the binding result is on record as “binds”.

For another experiment, the target named is T3, rhJag2-Fc (human, UniProt Q9Y219 27-1080, limits assumed).
T3 construct: also called R&D Cat. No. 1726-JG-050
T3 sequence (Q9Y219 27-1080 limits assumed): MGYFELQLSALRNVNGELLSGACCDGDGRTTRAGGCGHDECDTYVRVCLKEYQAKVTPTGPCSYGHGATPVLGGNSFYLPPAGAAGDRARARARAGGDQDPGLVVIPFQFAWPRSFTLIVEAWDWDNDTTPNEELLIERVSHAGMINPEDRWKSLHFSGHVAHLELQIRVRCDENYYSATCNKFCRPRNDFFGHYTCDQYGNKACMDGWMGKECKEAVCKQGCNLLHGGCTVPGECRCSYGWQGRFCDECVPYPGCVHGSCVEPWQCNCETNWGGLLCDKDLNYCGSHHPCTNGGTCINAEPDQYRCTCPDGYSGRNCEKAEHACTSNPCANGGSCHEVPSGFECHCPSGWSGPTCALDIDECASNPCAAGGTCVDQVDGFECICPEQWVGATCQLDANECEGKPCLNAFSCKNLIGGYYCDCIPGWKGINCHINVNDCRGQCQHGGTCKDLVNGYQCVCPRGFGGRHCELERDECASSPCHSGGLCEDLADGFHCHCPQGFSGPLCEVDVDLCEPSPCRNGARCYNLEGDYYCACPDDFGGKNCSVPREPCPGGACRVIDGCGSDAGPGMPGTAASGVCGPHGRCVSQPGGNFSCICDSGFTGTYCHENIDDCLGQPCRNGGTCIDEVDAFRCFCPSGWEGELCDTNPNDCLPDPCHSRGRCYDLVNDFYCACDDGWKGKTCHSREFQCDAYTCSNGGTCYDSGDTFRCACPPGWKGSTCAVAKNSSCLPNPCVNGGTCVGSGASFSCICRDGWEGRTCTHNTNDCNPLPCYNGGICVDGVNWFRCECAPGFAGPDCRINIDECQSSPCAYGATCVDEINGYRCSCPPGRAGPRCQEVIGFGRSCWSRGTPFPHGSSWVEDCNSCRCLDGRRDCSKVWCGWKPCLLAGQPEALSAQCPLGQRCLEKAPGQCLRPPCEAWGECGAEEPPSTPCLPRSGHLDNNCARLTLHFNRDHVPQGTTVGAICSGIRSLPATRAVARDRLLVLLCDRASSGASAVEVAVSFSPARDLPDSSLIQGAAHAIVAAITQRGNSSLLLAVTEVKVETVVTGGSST
Described as above. As to the method: as §2, §3
Regarding B6, the binding result is “binds”.

A further experiment deals with T4, His tagged rhDLL4 (human, UniProt Q9NR61 27-524).
T4 construct: also called R&D Cat. No. 1506-D4-050
T4 sequence (Q9NR61 27-524 limits assumed): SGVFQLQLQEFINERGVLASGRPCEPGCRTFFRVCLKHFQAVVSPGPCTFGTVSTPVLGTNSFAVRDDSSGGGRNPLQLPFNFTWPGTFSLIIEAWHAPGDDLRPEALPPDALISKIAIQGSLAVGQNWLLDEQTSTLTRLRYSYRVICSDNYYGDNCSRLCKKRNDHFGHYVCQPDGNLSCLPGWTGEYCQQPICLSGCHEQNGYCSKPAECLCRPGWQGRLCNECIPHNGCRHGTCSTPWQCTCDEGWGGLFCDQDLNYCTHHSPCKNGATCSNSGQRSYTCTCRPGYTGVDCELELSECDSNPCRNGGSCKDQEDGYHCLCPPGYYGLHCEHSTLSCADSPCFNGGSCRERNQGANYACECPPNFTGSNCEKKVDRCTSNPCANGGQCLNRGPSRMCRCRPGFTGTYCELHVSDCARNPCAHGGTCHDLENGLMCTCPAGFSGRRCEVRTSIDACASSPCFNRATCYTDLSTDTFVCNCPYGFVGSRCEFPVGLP
Described as above. As for the experimental part: as §2, §3
Consider B6, for which the binding result is “binds”.

The target of another experiment is T5, monomeric recombinant cynomologus monkey Notch3 extracellular domain (containing EGF like domains 1-12) … (cynomologus monkey).
T5 construct: domain: EGF like domains 1-12; also called monomeric rcNotch3
In words: SPR BIAcore T100, antibody captured by anti-human IgG Fc, monomeric rcNotch3 analyte, 37 C. As to the method: (§4) The binding affinities and kinetics of binding of chimeric and humanized antibodies to monomeric recombinant human Notch3 extracellular domain (containing EGF like domains 1-11) fusion protein (monomeric rhNotch3) and monomeric recombinant cynomologus monkey Notch3 extracellular domain (containing EGF like domains 1-12) fusion protein (monomeric rcNotch3) were measured by surface plasmon resonance, using a BIAcore® T100 instrument (GE Healthcare, Piscataway, N.J.).
as §1
With B1, the Kd is 12 nM, the koff stood at 0.0062 s⁻¹ and the kon was 540000 M⁻¹ s⁻¹.

Regarding B2, the dissociation constant Kd worked out at 23 nM, the koff came out at 0.021 s⁻¹ and the kon turned out to be 980000 M⁻¹ s⁻¹.

With B3, the Kd came out at 11 nM, the off-rate constant (koff) was 0.007 s⁻¹ and the kon stood at 660000 M⁻¹ s⁻¹.

As to B4, the Kd was found to be 12 nM, the koff was determined as 0.01 s⁻¹ and the association rate constant (kon) is 910000 M⁻¹ s⁻¹.

In the case of B5, the Kd came out at 12 nM, the koff is 0.01 s⁻¹ and the kon worked out at 910000 M⁻¹ s⁻¹.

A further experiment concerns the target T1, monomeric recombinant human Notch3 …. Put plainly: SPR BIAcore T100, antibody captured by anti-human IgG Fc, monomeric rhNotch3 analyte, 37 C. As to the method:
as §4, §1
B1: the dissociation constant (Kd) is 3.3 nM, the koff worked out at 0.0055 s⁻¹ and the kon amounted to 1.7e+06 M⁻¹ s⁻¹.

Consider B2, for which the Kd came to 3.2 nM, the koff worked out at 0.006 s⁻¹ and the on-rate (kon) amounted to 1.8e+06 M⁻¹ s⁻¹.

Consider B3, for which the Kd worked out at 3.8 nM, the off-rate (koff) was found to be 0.0055 s⁻¹ and the kon is 1.5e+06 M⁻¹ s⁻¹.

Turning to B4, the Kd turned out to be 3.3 nM, the koff is 0.0073 s⁻¹ and the kon stood at 2.2e+06 M⁻¹ s⁻¹.

For the molecule B5, the dissociation constant Kd was found to be 3.8 nM, the koff turned out to be 0.0041 s⁻¹ and the kon was found to be 1.1e+06 M⁻¹ s⁻¹.

A further experiment deals with T5, monomeric recombinant cynomologus …. In words: SPR BIAcore T100, antibody captured by anti-human IgG Fc, monomeric rcNotch3 analyte, 25 C. As for the experimental part: as §4, §1
Kinetic parameters were determined using the kinetic function of the BIAevaluation software (GE Healthcare) with double reference subtraction. Kinetic parameters for each antibody, kₐ (association rate constant), kd (dissociation rate constant), and KD (equilibrium dissociation constant) were determined.
With B1, the Kd came to 2.5 nM, the koff was found to be 0.0019 s⁻¹ and the association rate constant (kon) was determined as 780000 M⁻¹ s⁻¹.

On to B2, for which the Kd worked out at 3.4 nM, the koff is 0.0046 s⁻¹ and the association rate constant (kon) came out at 1.3e+06 M⁻¹ s⁻¹.

Take B3: the equilibrium dissociation constant (Kd) is 2.2 nM, the koff is 0.0038 s⁻¹ and the kon is 1.8e+06 M⁻¹ s⁻¹.

For B4, the Kd came out at 2.6 nM, the dissociation rate constant (koff) was determined as 0.0025 s⁻¹ and the kon amounted to 960000 M⁻¹ s⁻¹.

For the molecule B5, the Kd is 4 nM, the dissociation rate constant (koff) stood at 0.0032 s⁻¹ and the kon turned out to be 820000 M⁻¹ s⁻¹.
